Here are results for one molecule from patent US20150190490A1 (ONCOTHERAPY SCIENCE, published 2015).

The target of one experiment is T1, HLA-DR4 (DRB1*04:05) (human).
T1 construct: whole, on cells; MHC class II molecule on mouse L-cell transfectants (L-DR4), donor PBMCs or DCs; also called L-DR4; L-DR0405
Nature of the experiment: concluded from IFN-gamma ELISPOT restriction analysis (peptide-pulsed L-DR4 cells, blocking mAbs). As to the method:
(§1) On day 5, the DCs were cultured in the presence of the recombinant CDCA1 (50 micro g/ml) and OK432. The protein-loaded mature DCs were harvested on day 7, washed and used as stimulator in IFN-gamma ELISPOT assays. To determine restriction HLA molecules involved in antigen presentation, blocking of antigen-induced IFN-gamma production was investigated by adding anti-HLA-DR mAb (L243, Biolegend), anti-HLA-DP mAb, (B7/21, abcam), anti-human HLA-DQ mAb (SPV-L3, abcam), or anti-HLA class I mAb, (W6/32, abcam). All mAbs were used at a final concentration of 5 micro g/ml. All assessments of IFN-gamma ELISPOT assays were carried out in duplicate or triplicate, and results corresponded to mean values.
(§2) The immune responses of T-cells to PBMC, L-cells, and murine BM-DC pulsed with peptides (10 micro g/mL) or CDCA1 proteins-loaded human DCs (50 micro g/mL) were assessed by IFN-gamma ELISPOT assays (BD Biosciences, San Jose, Calif.) according to manufacturer's instructions and described previously (Zarour H M et al., Cancer Res 2000; 60:4946-52.). In briefly, peptide-pulsed PBMCs (3×10⁴/well), L-cells (5×10⁴/well), T2 cells (2×10⁴/well), C1R-A24 cells (2×10⁴/well), bone marrow-derived DCs (BM-DCs, 2×10⁴/well), or protein-loaded DCs (5×10³/well) were seeded in triplicate or duplicate in the ELISPOT plates as APCs or target cells. […] After incubation for 18 h, spot numbers were counted. […]

In another experiment the target is T2, HLA-DR15 (DRB1*15:02) (human).
T2 construct: whole, on cells; MHC class II molecule on mouse L-cell transfectants (L-DR15) or donor PBMCs; also called L-DR15
Nature of the experiment: concluded from IFN-gamma ELISPOT restriction analysis (peptide-pulsed L-DR15 cells, blocking mAbs). As to the method: as §1, §2

B1: CDCA1 (55-78) long peptide (peptide)
peptide: IVYGIRLEHFYMMPVNSEVMYPHL
notes: Synthetic long peptide (purity >90%), pulsed onto antigen presenting cells; also called CDCA1 (55-78) LP; CDCA1 (55-78)-LP
For the molecule B1, the binding result in the experiment with HLA-DR4 (DRB1*04:05) and with HLA-DR15 (DRB1*15:02) was “binds” each time.
